Data taken from patent US20010049357A1, “Use of Hsp27 as an anti-inflammatory agent” (priority 1999, published 2001).

Assays:
[1] = Adverse effect of Hsp 25 in normal rats; format: in vivo; settings: 10 μg in normal rats (~250 gm body weight)
Procedure: Studies were performed to analyze the adverse effect of Hsp 25 (a murine analogue of Hsp27 ) in rats. […] To examine the effects in an animal model, the cecal ligation and puncture model (CLP) in rats can be used. (Chaudry, et al, 1993, In: Schlag, G. and Redl, H. (Eds), Pathophysiology of shock, Sepsis, and Organ Failure. Springer-Verlag, pp. 1048-1059.) CLP induces sepsis in rats. Hsp25 is administered to the CLP animals and the anti-inflammatory effect of Hsp25 in CLP rats is evaluated. The effectiveness of Hsp25 in simultaneously inducing IL-10 and IL-12 in human monocytes in the rat model, is reasonably predictive of the efficacy of Hsp27 as an anti-inflammatory agent in humans.

[2] = tested on: Mono Mac 6, a human monocyte cell line; settings: reference 7; cited from earlier work

Molecule	adverse effects [1]	TNFα induced [2]
Hsp25: a murine analogue of Hsp27 (protein, UniProt P14602 1-209, looked up) Heat shock protein beta-1: MTERRVPFSLLRSPSWEPFRDWYPAHSRLFDQAFGVPRLPDEWSQWFSAAGWPGYVRPLPAATAEGPAAVTLAAPAFSRALNRQLSSGVSEIRQTADRWRVSLDVNHFAPEELTVKTKEGVVEITGKHEERQDEHGYISRCFTRKYTLPPGVDPTLVSSSLSPEGTLTVEAPLPKAVTQSAEITIPVTFEARAQIGGPEAGKSEQSGAK	did not induce any adverse effects	–
Hsp 60: Human 60-kDa heat-shock protein, member of the large Hsp family (protein, UniProt P10809 27-573, looked up) 60 kDa heat shock protein, …: AKDVKFGADARALMLQGVDLLADAVAVTMGPKGRTVIIEQSWGSPKVTKDGVTVAKSIDLKDKYKNIGAKLVQDVANNTNEEAGDGTTTATVLARSIAKEGFEKISKGANPVEIRRGVMLAVDAVIAELKKQSKPVTTPEEIAQVATISANGDKEIGNIISDAMKKVGRKGVITVKDGKTLNDELEIIEGMKFDRGYISPYFINTSKGQKCEFQDAYVLLSEKKISSIQSIVPALEIANAHRKPLVIIAEDVDGEALSTLVLNRLKVGLQVVAVKAPGFGDNRKNQLKDMAIATGGAVFGEEGLTLNLEDVQPHDLGKVGEVIVTKDDAMLLKGKGDKAQIEKRIQEIIEQLDVTTSEYEKEKLNERLAKLSDGVAVLKVGGTSDVEVNEKKDRVTDALNATRAAVEEGIVLGGGCALLRCIPALDSLTPANEDQKIGIEIIKRTLKIPAMTIAKNAGVEGSLIVEKIMQSSSEVGYDAMAGDFVNMVEKGIIDPTKVVRTALLDAAGVASLLTTAEVVVTEIPKEEKDPGMGAMGGMGGGMGGGMF	–	approximately 750 pg/ml
